Results from the nanobody polyreactivity screen of Harvey et al. (2022).

Test: yeast display, Sf9 membrane polyspecificity reagent, FACS + sequencing; frameworks hold sequencing errors
In short: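 Nanobodies from a synthetic yeast display library (Saccharomyces cerevisiae BJ5465), induced 36–48 hours with galactose, were stained 1 hour at 4 °C with 10% biotinylated, detergent-solubilized Sf9 membrane reagent, enriched on streptavidin microbeads, then FACS-sorted. Anti-HA (expression) and streptavidin (reagent binding) fluorescence set low and high (top ~1%) gates. Polyreactivity labels come from the gate of origin. Genes were colony-PCR amplified, MiSeq 2 × 250 sequenced and filtered by CDR length.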

Sequence	polyreactivity (PSR sort gate)
QVQLVESGGGVVQAGGSLRLSCAASGSIFRYYTRGGYRQAPGKVRELVAAISRSGGSTYYADSVKGRFTISRDNAKNTVYLQMNSLKPEDTAVYYCAARYKRAQGYREGDYWGQGTQVTVSS	high polyreactivity
QVQLVESGGGLVQAGGSLRLSCAASGRIFPWYTMGWYRQAPGKERELVAAITSGGNTDYADSVKGRFTISRDNAKNNVYLQMNSLKPEDTAVYYCAAGGYPGTTYYGYDYWGQGTQVTVSS	low polyreactivity
QDQLVESGGGLVQAGGTLSLSSAASVIIFYDNAMGWSRQAPGKEREYVAAISRSGTTTYYADSVKGRFTISRDNAKNTVYLQMNSLKPEDTAVYYCAARWVYYHAIFEYWGQGTQVTVSS	high polyreactivity
QVQLVESGGGLVQAGGSLRLSCAASGSTFQVNVMGWYRPAPGKEREFVAGISYSGGSTYYADSVKGRFTISRDNAKNTVYLQMNSLKPDDTAVYYCAAEEDYNIAGSWTYTYDYWGQGTQVTVSS	low polyreactivity
QVQLLESGGGLVQAGGSLRLSCAASGYTFARYAMGWYRQAPGQERELVAAITSSGGSTYYADSVKGRFTISRDNAKNTVYLQMNSLKPEDTAVYYCNARGFQKSDPRGYLILNYWGQGTQVTVSS	high polyreactivity
QVQLVESGGGLVQAGGSLRLSSSASGRISGRNAMGWYRQAPGKERELVAVITRGDTNYADSVKGRFTISRDNAKNTVYLQMNSLKPEDTAVYYCAKEPLASGWGYDYWGQGTQVTVSS	high polyreactivity
QVQLVESGGGLVQAGGSLRLSCAASGFIFWKYAKGWYRQAPGKERELVAAISTTGGSTYYADSVKGRFTNSRDNAKNTVYLQMNSLKPEDTAVYYCAAQVGRGYEVYPVYKYGYWGQGTQVTVSS	high polyreactivity
QVQLVESGGGLVQAGGSLRLSCAASGSIFYRYTMGWYRQAPGKERELVAAISSRGGSTYYADSVKGRFTISRDNAKNTVYLQMNSLKPEDTAVYYCAARFSYWAPSKGYGYWGQGTQVTVSS	high polyreactivity
QVQLVESGGGLVQAGGSLRLSCAASGRTFYPYAMGWYRQAPGKERELVAAITQSGGSTYYADSVKGRFTISRDNAKNTVFLEMNSLKPEDTAVYYCAKRGYDNYPFYYWGQGTQVTVSS	high polyreactivity
QVHHVESGAGLVQAGGSLRLSSAASGRTFGSNTKGCYSQAPGKERELVAAITISGGSTYYADSVKGRFTISRDNAKNTVYLKMNSLKPEDTAVYYCATRLWGHGGGRTTSYMYNWRQGTQVTVSS	high polyreactivity
QVQLVESGGGLVQAGGSLRLSCAASGSTFWNYAMGWYRQAPGKERELVAAISQRGGSTYYADSVKGRFTISRDNAKNTVYLQMNSLKPEDTAVYYCNIDYAGELDYWGQGTQVTVSS	high polyreactivity
QVQLQESGGGLVQGGGSLRLSCAASGSIYRYWYMGWYRQAPGKERELVASITEGATTNYAYSVKAALPLAAITRNTVYLQMDSMKPEDTAVYYRAASFGSTYDLVYWGQGTQVTVSS	high polyreactivity
QVQLVESGGGLVQAGGSLRLICAASGRIFFHYAMGWYRQAPGKVRELVAVISSTGGITNYADSVKGRFTISRDNAKNTVYLQMNSLKPEDTAVYYCNTVPRPFERYGYWGQGTQVTVSS	low polyreactivity
QDQLVESGGGLVQAGGSLRLSCAASGSTFRHNAMGWYRQAPGKERELVATIRTSGGTTYYADSVKGRFTISRDNAKNTVYLHMNSLKPEDTAVYYCAAVSYLFLYQGYPIAYPMYYWGQGTQVTLSS	low polyreactivity
QVQLVESGGGLVQAGGSLRLSCAASGFTFGKYDMGWYRQAPGKERELVATITSSGDSTYYADSVKGRFTISRDNAKNTVYLQMNSLKPEDTAVYYCATPYGRHGWFYLYDYWGQGTQVTVSS	low polyreactivity
QVQLVESGGGLVQAGGRLRLSCAASGGTFVPYAMGWYRQAPGTERELVARISKRGGTTYYADSVKGRFTISRDTAKNTVYLQMNSVKPEDTAVYYCGAVLPARGYYWGEGTQVTVSS	high polyreactivity

Sequence	polyreactivity (PSR sort gate)
QVQLVESGGGLVQAGGRLRLSCAASGRIFYFNAMGWYRQAPGKEREFVASINSIGDSTYYADSVKGRFTISRDNAKNTVYLQMNSLKPEDTAVYYCNADHGVINYRLDYWGQGTQVTVSS	low polyreactivity
QVQLVESGGGLVQAGGRLRLSCAASGRIFYVYAMGGYRQAPGKERELVAAISRGGSTNSADSVKGRFTISRDNAKNTVYLQMNSLKPEDTAVYYCAASSLPHYSYRHSYLYVYWGQCTQVTVSS	low polyreactivity
QVQLVESGGGLVQAGGSLRLSCAASGFTITRYARGWYRQAPGKERELVAVITYSGDTYYADSVKGRFTISRDNAKNTVYLQMNSLKPEDTAVYYCAVERAYYSDTGRYGYDYWGQGTQVTVSS	high polyreactivity
QVQLVESGGGLVQAGGSLRLSCAASGRTFPPYAMGWYRQAPGKERELVAAISRRAGTTYYADSVKGRFTISRDNAKNTVYLQMNSLKPEDTAVYYCAALTESSSYGYWGQGTQVTVSS	low polyreactivity
QVQLVESGGGLVQAGGSLRLSCAASGYTFPDYAMGWYRQAPGKERELVAAFRSGGGTNYADSVKGRFTISRDNAKNTVYLQMNSLKPEDTAVYYCAKEWAGGLYDYWGQGTQVTVSS	low polyreactivity
QVHLVESGGGLVQAGGSLRLSCAASGSTFVYNTMGWYRQAHGKERELVASISSDGNTDYADSVKGRFTISRDNAKNTVYVQMNSLKPEDTAVYYCAARYYYDWRFVGYDYWGQGTQVTVSS	low polyreactivity
QVQLVESGGGLVQAGGSLRLSCAASGSIFYVNDMGWYRQAPGKERELVAAISSTGSTKYADSVKGRFTISRDNAKNTVYLQMNSLKPEDTAVYYCAKEPGHRFEFDYWGQGTQVTVSS	low polyreactivity
QVELVESGGGLVQAGGSLRLSCAASGLTCVSYAMGWYRQAPGKERELVAAISRSGGSTYYADSVKGRFTISRDNAKNTVYLQMNSLKPVDTAVYYGNAYSYVDFCAVYRYDYWGQGTQLTVSS	high polyreactivity
QVQLVESGGGLVQAGGSLRISCAASGRTFYYYVMGWYRQAPGKERELVAAISRGGRTYYADSVKGRFTISRDYAKNTVYLQMNSLKPEDTAVYSCNAVPRKSRHRYDYWGQGTQVTVSS	high polyreactivity
QGQLVESGGGLVQAGGSLRLSCAASGSIFYRNAMGWYRQAPGKERELVAAISYSGGSTYYADSVKGRFTISRDNAKNTVYLQMNSLKPEDTAVYYCAKDYPTPISDYSRYYGYGYWGQGTQVTVSS	low polyreactivity
QVQLVESGGGLVQAGGSLRLSCAASGFTFVRYAMGWYRQAPGKEREFVASISARGGNTFYADSVKGRFTISRDNAKNTVYLQMNSLKPEDTAVYYCAKRGPYGTGYGYWGQGTQVTVSS	high polyreactivity
QVQLVESGGGLVQAGGSLRLSCAASGSTFYWYSMGWYRQAPGKERELVAAITSTGGSTYADSVKGRFTISRDNAKNTVYLQMNSLKPEDTAVYYCNVDTSSPSRRDYDYWGQGTQVTVSS	low polyreactivity
QGQLVESGGGLVQAGGSLRLSCAASGSIFPDYAMGWYRQAPGKERELVAAITWRDDSTYYADSVKGRFTISRDNAKNTVYLQMNSLKPEDTAVYYCIASALDPLYAKDDYWGQGTQVTVSS	low polyreactivity
QVQLVESGGGLVQAGGSLRLSCAASGSIFLLYARGWYRQAPGKERELVAAISRGGSTYYADSVKGRFTISRDNAKNTVYLQMNSLKPEDTAVYYCAAKLYYGYDWGQGTQVTVSS	low polyreactivity
QVQLVESGGGLVQAGGSLRLSSAASGLIFYWYAMGWYRQAPGKERELVAAISSAGSTNYADSVKGRFTISRDNAKNTVYLQMNSLKPEDTAVYYCAKGGYSPKSVKYYDYWGQGTQVTVSS	low polyreactivity
QVQLVDSGGGLVQAGGSLRLSCAASGRIFRSYAMGWYRQAPGKERELVAGISSTGGNTYYADSVKGRFTISRDNAKNTVYLQMNSLKPEDTAVYYCAAYWFRGYKYWGQGTQVTVSS	high polyreactivity
